Measured values reported in US20120058126A1 (Eli Lilly, published 2012).

Key:
[1] = target: T1, VEGFR-3-cFMS chimeric receptor (extracellular domain of human VEGFR-3 fused with the transmembrane and … (human, UniProt P07333 518-972, limits assumed)); assay: cell-based or functional assay
T1 sequence: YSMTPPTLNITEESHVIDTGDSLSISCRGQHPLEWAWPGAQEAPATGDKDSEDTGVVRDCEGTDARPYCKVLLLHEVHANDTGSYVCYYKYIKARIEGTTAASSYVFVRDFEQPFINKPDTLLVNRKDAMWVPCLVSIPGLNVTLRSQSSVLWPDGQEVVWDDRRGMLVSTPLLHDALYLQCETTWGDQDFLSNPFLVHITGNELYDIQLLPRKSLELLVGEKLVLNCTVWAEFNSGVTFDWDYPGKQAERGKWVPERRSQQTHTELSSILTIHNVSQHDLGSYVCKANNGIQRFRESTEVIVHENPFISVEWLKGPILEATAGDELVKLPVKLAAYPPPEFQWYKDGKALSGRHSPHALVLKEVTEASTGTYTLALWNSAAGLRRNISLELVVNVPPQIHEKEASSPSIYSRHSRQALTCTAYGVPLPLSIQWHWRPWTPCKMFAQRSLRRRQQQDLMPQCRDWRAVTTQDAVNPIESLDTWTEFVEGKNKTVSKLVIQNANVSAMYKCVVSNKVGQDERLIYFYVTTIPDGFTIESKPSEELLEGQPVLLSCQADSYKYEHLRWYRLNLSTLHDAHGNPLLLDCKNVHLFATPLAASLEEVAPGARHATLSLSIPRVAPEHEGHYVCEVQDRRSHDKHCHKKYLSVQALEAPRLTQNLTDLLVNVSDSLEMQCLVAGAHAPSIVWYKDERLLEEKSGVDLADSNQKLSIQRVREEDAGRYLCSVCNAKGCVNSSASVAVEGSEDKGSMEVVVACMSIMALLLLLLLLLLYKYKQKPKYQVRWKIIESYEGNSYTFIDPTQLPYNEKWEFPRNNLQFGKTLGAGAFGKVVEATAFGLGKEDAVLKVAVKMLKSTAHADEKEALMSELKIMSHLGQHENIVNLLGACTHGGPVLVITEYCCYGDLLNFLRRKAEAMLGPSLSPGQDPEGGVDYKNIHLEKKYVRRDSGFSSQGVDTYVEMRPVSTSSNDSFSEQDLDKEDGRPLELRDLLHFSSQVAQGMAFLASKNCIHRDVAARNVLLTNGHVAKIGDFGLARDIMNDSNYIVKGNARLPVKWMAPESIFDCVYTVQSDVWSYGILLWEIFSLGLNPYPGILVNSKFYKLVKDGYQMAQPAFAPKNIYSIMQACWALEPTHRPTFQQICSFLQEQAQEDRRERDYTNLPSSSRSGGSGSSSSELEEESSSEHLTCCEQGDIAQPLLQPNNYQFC

[2] = target: chimera 2 (human Ig1-mouse Ig2-mouse Ig3) sR3-AP (human; mouse, UniProt P05187 23-511); assay: sR3-AP chimera binding assay on antibody-coated plates
Description: (§1) After 2 hr incubation, the plates are washed 5 times and bound sR3-AP is detected by chemiluminescence.
(§2) DNA sequences encoding mouse and human Ig domains 1-3 are swapped in various combinations to form the following VEGFR-3 extracellular domain constructs: i) wild-type human; ii) wild-type mouse; iii) chimera 1 (human Ig1-human Ig2-mouse Ig3); chimera 2 (human Ig1-mouse Ig2-mouse Ig3); (iv) chimera 3 (mouse Ig1-human Ig2-mouse Ig3) and (v) chimera 4 (human Ig1-mouse Ig2-human Ig3). The constructs are expressed as fusion proteins with alkaline phosphatase (AP) Persaud, et al., supra. The encoded proteins are isolated from conditioned media (CM) of transiently transfected cells and normalized to equal protein concentration and AP activity.

[3] = target: chimera 4 (human Ig1-mouse Ig2-human Ig3) sR3-AP (human; mouse, UniProt P05187 23-511); assay: as above
Description: as §1, §2

[4] = target: T2, human sR3-AP (full-length soluble extracellular region of human VEGFR-3, Ig domains 1-7, fused to human … (human)); assay: SPR, BIACORE 2000 at 20° C, sR3-AP immobilized, antibody injected at 0.8 to 6.25 nM
T2 construct: also called soluble extracellular domain of human VEGFR-3
Description: Sensograms are evaluated using the BIA Evaluation 3.2 program to determine the on rates (ka) and the off rates (kd). The dissociation constant (Kd) is calculated from the ka and kd rates using the equation: […].

[5] = target: T2, human sR3-AP (full-length soluble …); assay: competitive VEGF-C blocking assay: Fab mixed with 50 ng sR3-AP, plates coated with VEGF-CΔNΔC, OD405; Fab, not IgG
Description: After an additional 2 hours, the plates are washed five times and p-nitrophenyl phosphate (Sigma) is added to quantify the bound sR3-AP molecules at OD₄₀₅ₙₘ.

B1: recombinant mature human VEGF-CΔNΔC (ligand)
chain: AHYNTEILKSIDNEWRKTQCMPREVCIDVGKEFGVATNTFFKPPCVSVYRCGGCCNSEGLQCMNTSTSYLSKTLFEITVPLSQGPKPVTISFANHTSCRCMSKL
With B1 the “incorporation of [3H]-TdR (mitogenic response)” value [1] was at least 3 fold.

B2: Antibody 1 (IgG form) (antibody, V domains shown)
VH: QVQLQQSGPGLVKPSQTLSLTCAISGDSVSGNSATWNWIRQSPSRGLEWLGRTYYRSKWNHDYAESVKSRITINPDTSKNQFSLQLNSVTPEDTAVYYCARGDSSSWYAFDYWGQGTLVTVSS
VL: EIVLTQSPGTLSLSLGERATLSCRASQSISSSFLAWYQQKPGQAPKLLIYAASTRATGIPDRFSGSGSGTDFTLTISRLEPEDFAVYYCQQYGRSLSFGGGTKVEVKR
notes: also called human anti-VEGFR-3 mAb
B2 was tested, and the binding result [2] was “no binding”, the binding result [3] was “no binding” and the Kd [4] was 0.056 nM.

B3: Antibody 1 (Fab form) (Fab, V domains shown)
VH: B2 VH
VL: EIVLTQSPGTLSLSLGERATLSCRASQSISSSFLAWYQQKPGQAPKLLIYAASTRATGIPDRFSGSGSGTDFTLTISRLEPEDFAVYYCQQYGRSLSFGGGTKVEVK
notes: also called Fab of Antibody 1
Binder B3 has an IC50 [5] of 2 nM.
